Measured values: patent US20250297255A1 (ARSENAL BIOSCIENCES, published 2025)
Changes are numbered by the printed parent chain.

B1: SLC34A2 Ab 11 (antibody, human IgG1, kappa, V domains shown)
VH: QVQLQESGPGLVKPSETLSLTCTVSGGSISSSSYYWGWIRQPPGKGLEWIGSLYYSGSTYYNPSLKSRVTISVDTSKNQFSLKLNSVTAADTAVYYCTRHPRGIAARWGNWFDPWGQGTLVTVSS
VL: EIVLTQSPSSLSASVGDRLTITCRASQTISSYLNWYQQKPGKAPKVLIYAASSLQSGVPSRFSGSGSGTDFTLTISSLQPEDFATYYCQQSFIIPYTFGQGTKLEIKR
notes: recombinant hIgG1/kappa from TAP products in Expi293
B2: SLC34A2 Ab 15 (antibody, human IgG1, kappa, V domains shown)
VH: QVQLQESGPGLVKPSETLSLTCTVSGGSVSSASYYWSWIRQPPGKGLEYIGYIYYSGSTYYNPSLKSRVTISIDTSKNQFSLNLRSVTAADTAVYYCARYIVGRPGFNWFDPWGQGTLVTVSS
VL: DIQMTQSPSSLSASVGDRVTITCRASQSISSYLNWYQQKPGKAPKFLISPASSLQSGVPSRFSGSGSGTDFTLTISSLQPEDFATYYCQQSYSIPWTFGQGTKVEIKR
notes: recombinant hIgG1/kappa
B3: SLC34A2 Ab 5 (antibody, human IgG1, kappa, V domains shown)
VH: QVQLQESGPGLVKPSETLSLTCSVSGGSISSSSYYWGWIRQPPGKGLEWIGSIDYSGSTYYNPSLKSRVTISIDTSKNQFSLRLSSVTAAEKAVYYCARHGRGTIGYFDYWGQGTLVTVSS
VL: B2 VL with F46L, S49Y, P50A, Q55L, S56T, S63T, A84G, I94P, W96L, Q100G
notes: recombinant hIgG1/kappa
B4: SLC34A2 Ab 16 (antibody, human IgG1, kappa, V domains shown)
VH: B2 VH with G27D, A32V, Y49W, Y54W, N83K
VL: B2 VL with S28T, F46L, S53N, S93I
notes: recombinant hIgG1/kappa
B5: SLC34A2 Ab 13 (antibody, human IgG1, kappa, V domains shown)
VH: QVQLVESGGGLVQPGRSLRLSCIGSGFTFGEYAMSWVRQAPGKGLEWVGFIRTKPYGGTTEFAASVKGRFTMSRDDSKSIAYLEMNSLKTEDTAVYYCTLIPALRFLEWLPWGQGTLVTVSS
VL: EIVLTQSPSSLSASVGDRVTVTCRANQDINNYLAWYQQTPGKVPKLLIYAASTLQSGVPSRFSGSGSGTDFTLTISSLQPEDVATYYCQNYYSVPWTFGQGTKLEIKR
notes: as for B1
B6: SLC34A2 Ab 9 (antibody, human IgG1, kappa, V domains shown)
VH: QVQLVESGGGLVQPGRSLRLSCSGSGFTSGDYAVSWVRQAPGKGLEWVGFIRTKPYGETTEYAASVKGRFTISRDDSKSIAYLQMNSLKAEDTAVFYCTFIPVSRFLEWLPWGQGIPVTVSS
VL: B5 VL with E1D, V3Q, L4M, S14F, V21I, N26S, N30G, G41E, L104V
notes: recombinant hIgG1/kappa
B7: SLC34A2 Ab 14 (antibody, human IgG1, kappa, V domains shown)
VH: QVQLQESGPGLVKPSETLSLTCTVSGGSVSSGSYYWSWIRQPPGKGLEWIGYIFYSGSTYYNPSLKSRVTISVDTSKNQFSLKLTSVTAADTAVYFCARWMTTVKGYFDYWGQGTLVTVSS
VL: EIVLTQSPDFQSVTPKESVTITCRASQSVGSGLHWYQQKPDQSPKLLIKYASQSFSGVPSRFSGSGSGTDFTLTINSLEAEDAATYYCLQSSSLPWTFGQGTKVEIKR
notes: recombinant hIgG1/kappa
B8: SLC34A2 Ab 1 (antibody, human IgG1, kappa, V domains shown)
VH: B7 VH with S33N, Y34F, F54Y, T85R, V87L, F96Y, T103K
VL: B7 VL with S18K, A80V, Y86F
notes: as for B1
B9: SLC34A2 Ab 2 (antibody, human IgG1, kappa, V domains shown)
VH: B7 VH with P42A, F54Y, T59N, T85R, S86A, F96Y, V104I
VL: B7 VL with S18K, A80T, Y87F, L89Q
notes: as for B1
B10: SLC34A2 Ab 10 (antibody, human IgG1, kappa, V domains shown)
VH: QVQLLESGGGLVQPGASLRLSCAASGFTFSTYAMTWVRQAPGKGLEWVSGINGGGDTTYYADSVKGRFTISRDNSKNTLYLQMNSLRAEDTAVYYCAVRGYTYGYFFDYWGQGTLVTVSS
VL: DIQMTQSPSSLSASVGDRVTITCRASQGISNYLAWYQQRPGKVPKLLIYAASTLRSGVPSRFSGSGSGTDFTLTISSLQPEDVATYYCQKYNSAPLTFGGGTKVEIKR
notes: recombinant hIgG1/kappa
B11: SLC34A2 Ab 6 (antibody, human IgG1, kappa, V domains shown)
VH: QVQLLESGGGLVQPGGSLRLSCAASGFTFSSSAMAWVRQAPGKGLEWVSAISSSGDNTYYADSVKGRFTISRDTSKNTLSLQMSSLRAEDTAIYYCAKQGTNWGLYFDYWGQGTLVTVSS
VL: B10 VL with T22A, G28V, R39K, A50V, R55Q, K90N, L96W, G100Q, V104L
notes: recombinant hIgG1/kappa
B12: SLC34A2 Ab 8 (antibody, human IgG1, kappa, V domains shown)
VH: QVQLQESGPGLVKPSETLSLTCTVSGGSISSRSYYWGWIRQPPGKGPEWIGSIYYSGSTFYNPSLKSRVTISEDTSKSQFSLKVTSVTAADTAVYYCARHPAGYSSSWSAFDIWGQGTMVTVSS
VL: EIVLTQSPSSLSASVGDRVTITCRASQSISSYLNWYQLKPGKAPKLLIYAASSLHSGVPSRFSGSGSGTDFTLTISSLQPADFATYYCQQAYISLTFGQGTRLEIKR
notes: as for B1
B13: TMPRSS4 Ab8 scFv (VH-VL) (scFv)
scFv: QVQLVQSGAEVKKPGASVKVSCKASGYRFTSQYMHWVRQAPGQGLEWMGIINPSGGSTSYAQKFQGRVTMTRDTSTSTVYMELSSLRSEDTAVYYCARGRIAVAGHPLGYWGQGTLVTVSSGGGGSGGGGSGGGGSDIQMTQSPSSLSASVGDRVTITCRASQSISSWLAWYQQKPGKAPKLLIYGASSLQSGVPSRFSGSGSGTDFTLTISSLQPEDFATYYCQQANSFPPTFGGGTKVEIK
notes: on monoclonal phage in the screen
B14: TMPRSS4 Ab78 scFv (VH-VL) (scFv)
scFv: EVQLLESGGGLVQPGGSLRLSCAASGFTFSSYGMNWVRQAPGKGLEWVSAISGSGGRTYYADSVKGRFTISRDNAKNSLYLQMNSLRAEDTAVYYCAKGTYYSSPKYSFDYWGQGTLVTVSSGGGGSGGGGSGGGGSDIQMTQSPSSLSASVGDRVTITCRASQDIKNFLAWYQQKPGKAPKLLIYAASSLQSGVPSRFSGSGSGTDFTLTISSLQPEDFATYYCQQSYSTPWTFGQGTKLEIK
notes: as for B13
B15: TMPRSS4 Ab9 scFv (VH-VL) (scFv)
scFv: QVQLVQSGAEVKKPGASVKVSCKASGYTFTRYYMHWVRQAPGQGLEWMGWINPNSGGTNYAQKFQGRVTMTRDTSTSTVYMELSSLRSEDTAVYYCARGGSWGSGPLGYWGQGTLVTVSSGGGGSGGGGSGGGGSDIQMTQSPSSLSASVGDRVTITCQASQDISRFLHWYQQKPGKAPKLLIYGASNLKSGVPSRFSGSGSGTDFTLTISSLQPEDFATYYCQQSYSTPPTFGGGTKVEIK
notes: as for B13
B16: TMPRSS4 Ab77 scFv (VH-VL) (scFv)
scFv: QVQLVQSGAEVKKPGASVKVSCKASGNIFTAQYMHWVRQAPGQGLEWMGWMNPNTVYTGSAQKFQGRVTMTRDTSTSTVYMELSSLRSEDTAVYYCARDWVGDGYNSFDYWGQGTLVTVSSGGGGSGGGGSGGGGSDIVMTQSPDSLAVSLGERATINCKSSQSVLYSSNNKNYLAWYQQKPGQPPKLLIYWASTRESGVPDRFSGSGSGTDFTLTISSLQAEDVAVYYCQQYYTTPFTFGPGTKVDIK
notes: as for B13

The binders below were run against T1, Human Solute Carrier Family 34 Member 2 (SLC34A2) (human, UniProt O95436 1-690) (assay: flow cytometry on OVCAR-3 cells (endogenous human SLC34A2), hIgG1/kappa, 8 five-fold dilutions from 133 nM;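 note: binding read as geometric mean fluorescence intensity, with non-transfected HEK293 cells serving as the negative control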).
T1 construct: Endogenous on OVCAR-3 cells; engineered on 786-O cells in the CAR kinetics assay; also called NaPi2b; NPT2B
T1 sequence: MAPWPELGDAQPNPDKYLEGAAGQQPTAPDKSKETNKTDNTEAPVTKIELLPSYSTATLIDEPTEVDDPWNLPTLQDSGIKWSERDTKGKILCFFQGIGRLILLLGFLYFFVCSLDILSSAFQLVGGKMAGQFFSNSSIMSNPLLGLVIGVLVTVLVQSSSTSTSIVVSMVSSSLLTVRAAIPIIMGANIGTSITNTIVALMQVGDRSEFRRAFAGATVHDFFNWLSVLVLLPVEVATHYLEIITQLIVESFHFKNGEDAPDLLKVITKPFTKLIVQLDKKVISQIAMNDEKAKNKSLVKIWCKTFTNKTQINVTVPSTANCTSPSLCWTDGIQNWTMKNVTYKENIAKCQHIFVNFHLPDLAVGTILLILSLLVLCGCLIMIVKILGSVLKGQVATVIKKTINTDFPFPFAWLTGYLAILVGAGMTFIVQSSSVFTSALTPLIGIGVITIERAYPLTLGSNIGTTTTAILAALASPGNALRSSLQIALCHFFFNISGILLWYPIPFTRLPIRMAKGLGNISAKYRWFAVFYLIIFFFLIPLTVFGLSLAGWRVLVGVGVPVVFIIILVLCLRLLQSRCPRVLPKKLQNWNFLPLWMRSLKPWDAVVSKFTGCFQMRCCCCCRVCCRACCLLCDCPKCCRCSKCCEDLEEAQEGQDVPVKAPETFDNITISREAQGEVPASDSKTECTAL
With B1 the EC50 was 6 nM and the “Max Signal by flow cytometry” value was 224.
B2 was tested, and the EC50 was 8 nM and the “Max Signal by flow cytometry” value was 346.
In the case of B3, the EC50 is reported as 5 nM and the “Max Signal by flow cytometry” value is reported as 271.
With B4 the EC50 was 6 nM and the “Max Signal by flow cytometry” value was 296.
For B5, the EC50 was 41 nM and the “Max Signal by flow cytometry” value was 233.
With B6 the EC50 was 37 nM and the “Max Signal by flow cytometry” value was 281.
For B7, the EC50 was 9 nM and the “Max Signal by flow cytometry” value was 288.
B8 was tested, and the EC50 was 7 nM and the “Max Signal by flow cytometry” value was 353.
With B9 the EC50 was 7 nM and the “Max Signal by flow cytometry” value was 330.
B10 was tested, and the EC50 was 20 nM and the “Max Signal by flow cytometry” value was 218.
With B11 the EC50 was 6 nM and the “Max Signal by flow cytometry” value was 211.
B12 was tested, and the EC50 was 6 nM and the “Max Signal by flow cytometry” value was 354.

Target: T2, ECL-mFc fusion protein (human SLC34A2 ECL2 fused to murine Fc) (human, biotinylated (site not stated))
T2 construct: The range 234-362 is the ECL2 part counted on human SLC34A2; also called mECL2-Fc protein
T2 chain: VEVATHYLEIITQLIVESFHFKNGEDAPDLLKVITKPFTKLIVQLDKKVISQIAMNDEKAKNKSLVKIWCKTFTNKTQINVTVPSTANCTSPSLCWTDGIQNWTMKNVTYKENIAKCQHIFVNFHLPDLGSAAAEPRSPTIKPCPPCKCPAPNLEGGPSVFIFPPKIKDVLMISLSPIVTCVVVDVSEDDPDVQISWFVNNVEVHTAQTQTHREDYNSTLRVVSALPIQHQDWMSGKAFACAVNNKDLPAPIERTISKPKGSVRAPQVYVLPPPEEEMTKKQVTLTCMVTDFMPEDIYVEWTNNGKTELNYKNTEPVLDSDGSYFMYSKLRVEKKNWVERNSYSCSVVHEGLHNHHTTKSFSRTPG
Test: ELISA, biotinylated antigen on NeutrAvidin plate, anti-human Fc-HRP
B5: binds.
B7: binds.
B8: binds.
B9: binds.

Target: T3, SLC34A2 peptide fragment (peptide 1) (human, biotinylated (site not stated))
T3 construct: ELISA antigen captured on NeutrAvidin plates; also called SLC34A2 peptide immunogen
T3 peptide: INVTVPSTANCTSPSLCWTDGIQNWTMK
Test: as above
B3: no binding.
B5: binds.
B7: binds.
B8: binds.
B9: binds.
B11: no binding.

Each binder was assayed against T4, Human TMPRSS4 (Transmembrane protease, serine 4), wild type full length (human, UniProt Q9NRS4 1-437) (assay: flow cytometry, monoclonal phage on HEK293T-TMPRSS4 cells;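 note: bound phage detected with a PE-labelled mouse anti-M13 monoclonal antibody, read by flow cytometry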).
T4 construct: Type II membrane protein over-expressed on HEK293T cells (also endogenous on H1975 and LUDLU-1 cells); also called TMPRSS4 WT; HEK293T-TMPRSS4
T4 sequence (Q9NRS4 whole entry): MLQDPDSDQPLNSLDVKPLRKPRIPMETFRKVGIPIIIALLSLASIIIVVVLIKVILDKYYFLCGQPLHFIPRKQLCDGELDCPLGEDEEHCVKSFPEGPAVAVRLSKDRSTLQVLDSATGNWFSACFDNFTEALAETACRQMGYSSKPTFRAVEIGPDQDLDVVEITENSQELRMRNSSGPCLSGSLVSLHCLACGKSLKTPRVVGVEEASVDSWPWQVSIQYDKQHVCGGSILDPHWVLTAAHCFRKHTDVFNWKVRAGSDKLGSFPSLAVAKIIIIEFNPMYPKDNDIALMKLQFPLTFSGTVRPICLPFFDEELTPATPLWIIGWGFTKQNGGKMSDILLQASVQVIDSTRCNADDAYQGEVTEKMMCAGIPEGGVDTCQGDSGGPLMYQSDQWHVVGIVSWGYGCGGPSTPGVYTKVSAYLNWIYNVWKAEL
B13: binds.
B14: binds.
B15: binds.
B16: binds.
